In the supplement of paper PMC10724198:
± gives the standard deviation of the averaged measurements.

test system: Saccharomyces cerevisiae; test: protein stability index of tFT-peptide fusion (C-terminal peptide) (PSI (0-1 scale)); higher = more stable (slower turnover); conditions: genetic background: wild type; temperature: 30 C
Procedure: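 MPS profiling in S. cerevisiae of the tFT-X12 degron library: putative degron peptides plus stable controls, 12 aa, fused to the C-terminus of a sfGFP-mCherry timer. Cells are FACS-sorted into 8 mCherry/sfGFP bins and deep-sequenced. PSI runs from 0 (unstable) to 1 (stable). Backgrounds are wild type, das1Δ and doa10Δ at 30 °C, and wild type, das1Δ, cdc34-1 and cdc53-1 at 37 °C; 2-3 technical replicates each.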
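Note: PSI is a weighted mean of sequencing reads over stability bins, variants kept only with over 10 reads, mCherry proximal and sfGFP distal, peptide attached via GGGS linker.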

How did the protein stability index turn out when VVFRCSSFFCLV was run?
Its protein stability index is 0.405 ± 0.035.

For VVIYWFLPIIFA, which protein stability index is on record?
Its protein stability index is 0.155 ± 0.021.

For VVLGLFCVRMGT, which protein stability index is on record?
The protein stability index was 0.451 ± 0.02.

With VVLVGVAVCRLG as the sequence, how does the protein stability index read?
The protein stability index was 0.277 ± 0.014.

How did the protein stability index turn out when VVNFLVFRFFCI was run?
The protein stability index was 0.217 ± 0.037.

Which protein stability index does the source give for VVPYPFLTLLNI here?
Its protein stability index is 0.381 ± 0.012.

With VVRVSFSFCLSC as the sequence, how does the protein stability index read?
The protein stability index was 0.388 ± 0.029.

With VVSVVVLVNSRG as the sequence, how does the protein stability index read?
The protein stability index was 0.373 ± 0.024.

For VVVLLLVVWFCL, which protein stability index is on record?
Its protein stability index is 0.296 ± 0.025.

VVVWLFRIKSNV was tested. Which protein stability index did it give?
The protein stability index was 0.318 ± 0.022.

VWGLWRLCVWGV was tested. Which protein stability index did it give?
Its protein stability index is 0.302 ± 0.025.

VWLFSWSVVGGT was tested. Which protein stability index did it give?
Its protein stability index is 0.376 ± 0.0048.

With VWSVSVTIVGRR as the sequence, how does the protein stability index read?
Its protein stability index is 0.455 ± 0.0093.

VYFASCVVLLMV was tested. Which protein stability index did it give?
The protein stability index was 0.174 ± 0.017.

VYLVVLYLRYFA was tested. Which protein stability index did it give?
Its protein stability index is 0.174 ± 0.016.

VYVYTIRVRWSE was tested. Which protein stability index did it give?
Its protein stability index is 0.184 ± 0.027.

For WAFVVCGAVFFW, which protein stability index is on record?
The protein stability index was 0.282 ± 0.036.

Which protein stability index does the source give for WCLLGVPVRVVV here?
Its protein stability index is 0.288 ± 0.042.

With WCVCVSMRMIAI as the sequence, how does the protein stability index read?
Its protein stability index is 0.187 ± 0.002.

Which protein stability index does the source give for WFIFATFLILVT here?
Its protein stability index is 0.121 ± 0.0082.

For WFLVLLFFWFLL, which protein stability index is on record?
The protein stability index was 0.533 ± 0.022.

WFYLLFVLFGLV was tested. Which protein stability index did it give?
Its protein stability index is 0.417 ± 0.017.

How did the protein stability index turn out when WHFPCPPLPCPV was run?
Its protein stability index is 0.347 ± 0.035.

Which protein stability index does the source give for WILLVLACFSSG here?
The protein stability index was 0.249 ± 0.034.

With WLGCVLIGWHVL as the sequence, how does the protein stability index read?
Its protein stability index is 0.19 ± 0.017.

With WLKLWSYVTHLG as the sequence, how does the protein stability index read?
Its protein stability index is 0.346 ± 0.021.

WSLRFRRMMLRC was tested. Which protein stability index did it give?
The protein stability index was 0.127 ± 0.026.

For WVVVARIFSVFF, which protein stability index is on record?
The protein stability index was 0.35 ± 0.018.

With WVVVKITAHTAT as the sequence, how does the protein stability index read?
Its protein stability index is 0.222 ± 0.021.

With WYAGIVFTRVWM as the sequence, how does the protein stability index read?
The protein stability index was 0.482 ± 0.02.

How did the protein stability index turn out when YAFLWCVFYLSF was run?
The protein stability index was 0.196 ± 0.017.

YCCDYFMFVLVV was tested. Which protein stability index did it give?
The protein stability index was 0.183 ± 0.032.

Which protein stability index does the source give for YDLRRIGRIGVG here?
The protein stability index was 0.338 ± 0.0099.

Which protein stability index does the source give for YFIVVSWFLVCW here?
Its protein stability index is 0.121 ± 0.0079.

Which protein stability index does the source give for YFLFRYIVITVF here?
Its protein stability index is 0.0569 ± 0.012.

Which protein stability index does the source give for YFRKDYRKMAQH here?
Its protein stability index is 0.163 ± 0.046.

YGAGDLTKYFIV was tested. Which protein stability index did it give?
The protein stability index was 0.122 ± 0.028.

YHFRLLVTCCPC was tested. Which protein stability index did it give?
The protein stability index was 0.257 ± 0.0088.

For YLCCFSVAFFLG, which protein stability index is on record?
The protein stability index was 0.153 ± 0.018.

How did the protein stability index turn out when YLFDQYDWYKSM was run?
Its protein stability index is 0.162 ± 0.027.

YLLTAFLSAFNP was tested. Which protein stability index did it give?
Its protein stability index is 0.522 ± 0.031.

How did the protein stability index turn out when YLMVSKMSLRIG was run?
Its protein stability index is 0.306 ± 0.026.

YPGMFLQLVWWI was tested. Which protein stability index did it give?
Its protein stability index is 0.117 ± 0.0026.

Which protein stability index does the source give for YPSASLLPLFSC here?
The protein stability index was 0.136 ± 0.017.

For YQFDGLVFLRLS, which protein stability index is on record?
Its protein stability index is 0.4 ± 0.017.

YRFVWRWIPICA was tested. Which protein stability index did it give?
Its protein stability index is 0.038 ± 0.014.

How did the protein stability index turn out when YRWERIYIGLRL was run?
The protein stability index was 0.188 ± 0.018.

How did the protein stability index turn out when YSALHNPPQPVT was run?
Its protein stability index is 0.658 ± 0.011.

For YTLWFLAWGLVF, which protein stability index is on record?
The protein stability index was 0.22 ± 0.034.

For YWRNYLVLVCKF, which protein stability index is on record?
Its protein stability index is 0.481 ± 0.046.

With YYLHFRFFIYVF as the sequence, how does the protein stability index read?
Its protein stability index is 0.0626 ± 0.013.

same assay, conditions: genetic background: wild type; temperature: 37 C

How did the protein stability index turn out when VNFVLTLYPYLV was run?
Its protein stability index is 0.4472 ± 0.00073.

Which protein stability index does the source give for VPPLPPPGPPTF here?
The protein stability index was 0.708 ± 0.011.

How did the protein stability index turn out when VQLLTRLKTPHP was run?
The protein stability index was 0.716 ± 0.021.

Which protein stability index does the source give for VRDQGWILNMLL here?
The protein stability index was 0.639 ± 0.023.

How did the protein stability index turn out when VRICVVLRVCWW was run?
Its protein stability index is 0.18 ± 0.0089.

With VRINLLFVWFSR as the sequence, how does the protein stability index read?
The protein stability index was 0.464 ± 0.033.

With VRLSQVNRLICT as the sequence, how does the protein stability index read?
Its protein stability index is 0.573 ± 0.017.

How did the protein stability index turn out when VRRGAVWCCLCG was run?
Its protein stability index is 0.633 ± 0.0059.

VRVLAALVLCVV was tested. Which protein stability index did it give?
Its protein stability index is 0.322 ± 0.011.

With VRYCFFWVRAVV as the sequence, how does the protein stability index read?
Its protein stability index is 0.3718 ± 0.0019.

With VTGYLSTLTMLC as the sequence, how does the protein stability index read?
The protein stability index was 0.5014 ± 0.0011.

For VTWNFIVYVCCF, which protein stability index is on record?
The protein stability index was 0.219 ± 0.0045.

Which protein stability index does the source give for VVFLWRCRLLLG here?
The protein stability index was 0.154 ± 0.0056.

Which protein stability index does the source give for VVFRCSSFFCLV here?
The protein stability index was 0.536 ± 0.0083.

For VVIYWFLPIIFA, which protein stability index is on record?
Its protein stability index is 0.224 ± 0.013.

With VVLGLFCVRMGT as the sequence, how does the protein stability index read?
The protein stability index was 0.5718 ± 0.0034.
